Patent publication US20240424127A1 (BRIGHT PEAK THERAPEUTICS, published 2024)
Where a chain is given by its changes, count along the chain named. In names and notes the source's numbering stands. Bridges are numbered along the chain shown (N, C = ends). [ ]: non-standard residue; d: D form. glutaryl‑PEG9‑azide = glutaryl-PEG9-azide group on the N-terminal amine; hSer = N[C@@H](CCO)C(=O)O; Nle = CCCC[C@H](N)C(=O)O

T1: Recombinant Human IL-7R alpha/CD127 Fc Avi-tag Protein, CF (R&D Systems #AVI10317-050) (human, UniProt P16871 21-239)
T1 construct: Bought construct; It was loaded on streptavidin (SAX/SAX2) biosensors; not shown: Fc and Avi-tag of a bought protein
T1 sequence (looked up): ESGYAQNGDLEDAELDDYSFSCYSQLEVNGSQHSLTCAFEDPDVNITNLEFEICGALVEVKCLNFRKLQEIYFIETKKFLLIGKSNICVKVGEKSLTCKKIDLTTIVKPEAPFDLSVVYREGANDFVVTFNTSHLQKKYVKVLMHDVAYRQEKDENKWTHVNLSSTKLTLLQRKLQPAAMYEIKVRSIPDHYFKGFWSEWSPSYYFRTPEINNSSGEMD

T2: IL-7 receptor (IL-7Rα/γc heterodimer) on primary human T cells (human, UniProt P16871 21-459; P31785 23-369)
T2 sequence (looked up) 1: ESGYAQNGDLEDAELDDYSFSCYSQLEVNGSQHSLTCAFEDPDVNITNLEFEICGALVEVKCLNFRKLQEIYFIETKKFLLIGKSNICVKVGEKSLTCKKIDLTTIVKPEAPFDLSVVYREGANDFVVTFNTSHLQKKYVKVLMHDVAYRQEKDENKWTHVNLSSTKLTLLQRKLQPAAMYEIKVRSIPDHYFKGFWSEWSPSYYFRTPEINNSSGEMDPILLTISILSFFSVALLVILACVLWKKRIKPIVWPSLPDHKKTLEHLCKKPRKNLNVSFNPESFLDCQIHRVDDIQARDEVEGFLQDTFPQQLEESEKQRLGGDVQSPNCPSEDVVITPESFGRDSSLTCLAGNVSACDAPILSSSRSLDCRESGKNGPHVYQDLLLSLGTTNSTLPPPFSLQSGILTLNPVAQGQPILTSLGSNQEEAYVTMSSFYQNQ
T2 sequence (looked up) 2: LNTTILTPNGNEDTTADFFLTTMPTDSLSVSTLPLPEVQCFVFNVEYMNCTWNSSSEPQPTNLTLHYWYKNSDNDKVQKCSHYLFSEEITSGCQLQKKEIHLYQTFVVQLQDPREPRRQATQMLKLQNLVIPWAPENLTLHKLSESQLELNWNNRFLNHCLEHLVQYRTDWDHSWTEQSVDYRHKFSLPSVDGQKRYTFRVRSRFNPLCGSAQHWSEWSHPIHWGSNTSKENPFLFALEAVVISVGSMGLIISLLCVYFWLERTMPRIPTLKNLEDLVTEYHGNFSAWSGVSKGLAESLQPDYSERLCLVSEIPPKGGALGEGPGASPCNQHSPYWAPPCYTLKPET

B1: CMP-107, synthetic IL-7 V15W of SEQ ID NO: 5 with glutaryl-PEG9-azide at the N-terminus (ligand)
chain: {glutaryl‑PEG9‑azide}-DCDIEGKDGKQYESWL[Nle]VSIDQLLDS[Nle]KEIGSNCL[hSer]NEFNFFKRHICDANKEG[Nle]FLFRAARKLRQFLK[Nle]NSTGDF[hSer]LHLLKVSEGTTILLNCTGQVKGRKPAALGEAQPTKSL[hSer]ENKSLKEQKKLNDLCFLKRLLQEIKTCWNKIL[Nle]GTKEH-NH2
modifications: disulfide 34-129, 47-141, 2-92
notes: also called synthetic IL-7 with V15W
B2: CMP-035, recombinant human native IL-7 with His-tag (ligand)
chain: DCDIEGKDGKQYESVLMVSIDQLLDSMKEIGSNCLNNEFNFFKRHICDANKEGMFLFRAARKLRQFLKMNSTGDFDLHLLKVSEGTTILLNCTGQVKGRKPAALGEAQPTKSLEENKSLKEQKKLNDLCFLKRLLQEIKTCWNKILMGTKEHVDHHHHHH
notes: also called WT IL-7 His; recombinant IL-7 (WT)
B3: CMP-117, recombinant IL-7 Q11F with His-tag (ligand)
chain: B2 chain with Q11F
B4: CMP-036, synthetic IL-7 of SEQ ID NO: 3 (no N-terminal conjugation handle) (ligand)
chain: DCDIEGKDGKQYESVL[Nle]VSIDQLLDS[Nle]KEIGSNCL[hSer]NEFNFFKRHICDANKEG[Nle]FLFRAARKLRQFLK[Nle]NSTGDF[hSer]LHLLKVSEGTTILLNCTGQVKGRKPAALGEAQPTKSL[hSer]ENKSLKEQKKLNDLCFLKRLLQEIKTCWNKIL[Nle]GTKEH
modifications: ends and bridges not checked
B5: CMP-113, synthetic IL-7 C2A, C92A of SEQ ID NO: 10 with glutaryl-PEG9-azide at the N-terminus (ligand)
chain: {glutaryl‑PEG9‑azide}-DADIEGKDGKQYESVL[Nle]VSIDQLLDS[Nle]KEIGSNCL[hSer]NEFNFFKRHICDANKEG[Nle]FLFRAARKLRQFLK[Nle]NSTGDF[hSer]LHLLKVSEGTTILLNATGQVKGRKPAALGEAQPTKSL[hSer]ENKSLKEQKKLNDLCFLKRLLQEIKTCWNKIL[Nle]GTKEH
modifications: ends and bridges not checked
B6: CMP-114, CMP-108 conjugated to 30 kDa DBCO PEG at the N-terminus (ligand)
chain: DCDIEGKDGKQYESVL[Nle]VSIDQLLDS[Nle]KEIGSNCL[hSer]NEFNFFKRHICDANKEG[Nle]FLFRAARKLRQFLK[Nle]NSTGDF[hSer]LHLLKVSEGTTILLNCTGQVKGRKPAALGEAQPTKSL[hSer]ENKSLKEQKKLNDLCFLKRLLQEIKTCWNKIL[Nle]GTKEH-NH2
modifications: disulfide 34-129, 47-141, 2-92; not fully specified (N-terminus); also: N-terminal azide conjugated to 30 kDa DBCO-PEG

Each binder was assayed against T1, Recombinant Human IL-7R alpha/CD127 Fc … (assay: BLI (Octet R8); CD127-Fc-Avi loaded on SAX2 sensor, IL-7 polypeptide as analyte).
B1 was tested, and the Kd was 22.5 nM, the koff was 0.0259 s⁻¹ and the kon was 1.15e+06 M⁻¹ s⁻¹.

Biological target: T1, Recombinant Human IL-7R alpha/CD127 Fc …
Test: as above
Remark: another data set of the same source
B2 showed a Kd of 1.28 nM, a koff of 0.00698 s⁻¹ and a kon of 5.47e+06 M⁻¹ s⁻¹.

Each binder was assayed against T2, IL-7 receptor (IL-7Rα/γc heterodimer) … (assay: cell-based or functional assay).
With B2 the “EC50 pSTAT5, CD4 Memory” value was 1 pM, the “EC50 pSTAT5, CD4 Naive” value was 1 pM and the “EC50 pSTAT5, CD4 Treg” value was 32 pM. For the same binder, the “EC50 pSTAT5, CD8 Memory” value was 6 pM and the “EC50 pSTAT5, CD8 Naive” value was 2 pM. In the case of B3, the “EC50 pSTAT5, CD4 Memory” value is reported as 1 pM, the “EC50 pSTAT5, CD4 Naive” value is reported as 1 pM and the “EC50 pSTAT5, CD4 Treg” value is reported as 10 pM. The “EC50 pSTAT5, CD8 Memory” value was 2 pM and the “EC50 pSTAT5, CD8 Naive” value was 1 pM. With B4 the “EC50 pSTAT5, CD4 Memory” value was 5 pM, the “EC50 pSTAT5, CD4 Naive” value was 5 pM and the “EC50 pSTAT5, CD4 Treg” value was 15 pM. The “EC50 pSTAT5, CD8 Memory” value was 6 pM and the “EC50 pSTAT5, CD8 Naive” value was 6 pM. For B1, the “EC50 pSTAT5, CD4 Memory” value was 0.4 pM, the “EC50 pSTAT5, CD4 Naive” value was 1 pM and the “EC50 pSTAT5, CD4 Treg” value was 1.2 nM. For the same binder, the “EC50 pSTAT5, CD8 Memory” value was 34 pM and the “EC50 pSTAT5, CD8 Naive” value was 6 pM. In the case of B5, the “EC50 pSTAT5, CD4 Memory” value is reported as 40 pM, the “EC50 pSTAT5, CD4 Naive” value is reported as 40 pM and the “EC50 pSTAT5, CD4 Treg” value is reported as 0.18 nM. For the same binder, the “EC50 pSTAT5, CD8 Memory” value was 60 pM and the “EC50 pSTAT5, CD8 Naive” value was 50 pM. B6 was tested, and the “EC50 pSTAT5, CD4 Memory” value was 4 pM, the “EC50 pSTAT5, CD4 Naive” value was 2 pM and the “EC50 pSTAT5, CD4 Treg” value was 10 pM. The “EC50 pSTAT5, CD8 Memory” value was 4 pM and the “EC50 pSTAT5, CD8 Naive” value was 5 pM.
